Source: the nanobody polyreactivity screen of Harvey et al. (2022)

Assay: yeast display, Sf9 membrane polyspecificity reagent, FACS + sequencing; frameworks hold sequencing errors
In short: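 Galactose-induced (36–48 hours) yeast carrying a synthetic nanobody display library were exposed to 10% biotinylated, detergent-solubilized Sf9 membrane reagent at 4 °C for 1 hour. FACS followed streptavidin microbead enrichment, using low and high (top ~1%) gates for expression (anti-HA) and reagent binding (streptavidin). Colony PCR, MiSeq 2 × 250 sequencing and CDR-length filtering followed. Labels for polyreactivity reflect the gate of origin.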

| Sequence | polyreactivity (PSR sort gate) |
| --- | --- |
| QVQLVESCGGFVQAGGSLSLSCAASGSIYGRYGMGWYIQAPGKERELVAAITSGTRTNYADSVKGRFTISRDNAKNTVYLQMKSLKPEDTAVYYCYALRLRGNYEYGYWGQGTQVTVSS | low polyreactivity |
| QVQLVESCGGIVQAGGSHRLSCAASGSIFAWYAMGWYRQAPGKERELVAAITYTGGRTYYADSVKGRFTISRDIAKYTVYLQMISLNPEDTAVFYCAKDGPATVRRGYDYWGQGTQVTVSS | high polyreactivity |
| QVQLVESCGGLDQAGGSLRLSCAASALTFVDNAMGWYRQAPGKERELVAAISYNGGSTYYADSVKGRFTISRDNAKNTVYLQMNCLKPEDTAVYYCAADISVGRYGDMDYWGQGTLVTVSS | low polyreactivity |
| QVQLVESCGGLGQAGGSLRLSCSASGRIFGTYAKGLYRKAPGKERELLASISYSDGSTYADSVKGRFTISRDNAKNTVYLQMNSLKPEDTSVYYCAADVYYYAQSEDGYWGQGTQVTVSS | low polyreactivity |
| QVQLVESCGGLLQAGGSLRLSCAASGRTFTQYAMGCYRQAPGKERELVAAISWSDDITYYADSVKGRCTISRDIAQYTVYLQMNSLKPEDTAVYYCATEGYWGYDYDYWGQGTQVTVSS | high polyreactivity |
| QVQLVESCGGLVHAGGSLRLSCAASGRIIIFYAMGWYRQAPGKERELVASITSGASTYADSVKGRFTISRDNAKNTVYLQLNSLKPEDTAVYYCAKDYLDATPWFTWPTYSEFDYWGQGTQVTVSS | low polyreactivity |
| QVQLVESCGGLVPAGGSLRLSCAASGSTFRYAMGWYRQTPGKERELVDAITRSGGSTYYAYSVKVRFTISRDKAKNTVYLQMNSLKPEDTAVYYCNARRGKGKSYGDYGYGYWGQGTQVTVSS | high polyreactivity |
| QVQLVESCGGLVQAGCSLRLSCAASGSIRYYPMGWYRQAPGKERELVAGITRNGGSTYYADSVKGRFTISRDNAKITVYLQMNSLKPEDTAVYYFAAGFTTRRGEYNYWGQGTQVTVSS | high polyreactivity |
| QVQLVESCGGLVQAGGSLRLICAASGITFYRNAMGGYRQAPWKERELVAAITRRGGSTYYADSVKGRFTISRDNAKNTVYCQMNIVKPEDTAVYYCAAQDATRGDGYWGQGTQVTVSS | high polyreactivity |
| QVQLVESCGGLVQAGGSLRLSCAASAWYAIGWYRQAPGKEREFVAAITFSGSSTYYADSVKGRFTISRDNAKNTVYLQMNSLKPEDTAVYYCNADWWEWGQGTQVTVSS | low polyreactivity |
| QVQLVESCGGLVQAGGSLRLSCAASGFTFGSYDMGWYRQAPGKERELVAAITWSGGSTYYADSVKGRFTISRDNAKNTVYLQMNSLKPEDTAVYYCNAYKFHMNYWGQGTQVTVSS | high polyreactivity |
| QVQLVESCGGLVQAGGSLRLSCAASGIIFPPYAMGWYRPAPGKERELVAAITRSGASTYYADSVKGRFTISRDNAKNTVYLQMNSLKPEDTAVYYCAVGVPGGYWKDYYWGQGTQVTVSS | high polyreactivity |
| QVQLVESCGGLVQAGGSLRLSCAASGITFYGYAMGWYIQAPGKERELVARITISGRTNYADYVKGRFTISRDNAKNTVYLQMNSLKPEDTAVYYCATLVHWSYPYYYWGQGTQVTVSS | high polyreactivity |
| QVQLVESCGGLVQAGGSLRLSCAASGLTFPKYAMGWYRQAPGKERELVARISYSGASTYYADSVKGRFTISRDNAKNTVYLQMNSLKPEDTAVYYCAARIYRVYYVHFAPYYYWGQGTQVTVSS | high polyreactivity |
| QVQLVESCGGLVQAGGSLRLSCAASGRIFLYNAMGWYRQAPGKERELVAVISRNGGSTYYADSVKGRFTISRDNAKNTVYLQMNSLKPEDTAVYYCNRYDRLAGRTTYDYWGQGSQVTVSS | high polyreactivity |
| QVQLVESCGGLVQAGGSLRLSCAASGRIFQTYAMGWYRQAPGKERELVASISWSGGSTYYADSVKGRFTILRDNAKNTVYLQMNSLKPEDTAVYYCAAVYYSTDYYFWYDYWGQGTQVTVSS | low polyreactivity |
| QVQLVESCGGLVQAGGSLRLSCAASGRIFRWYAMGWYRQAPGKERELVARITSGGSTNYADSVKGRFTISRDNAKNTVYLQMNSLKPEDTAVYYCARDWGKSEYEYWGQGTQVTVSS | high polyreactivity |
| QVQLVESCGGLVQAGGSLRLSCAASGRILSSYAMGGNRQAPGKERELVADITQRGGTTYYADSVKGRFSISRDNAKNTVYLQMNRLKPEDTAVYYCNAKSYRSYGGRGGVEYDYCGQGTQVTVSS | low polyreactivity |
| QVQLVESCGGLVQAGGSLRLSCAASGRTFRSYTMGWYRQAPGKERELVASIRTSSGCTYYADSVKGRFTISRDNAKNSVYLKMNSLKPEDTAVYYCAKTLLYPWFRTVAVDYWGQGTQVTVSS | low polyreactivity |
| QVQLVESCGGLVQAGGSLRLSCAASGSIFRYNAMGWYRQAPWKEWELVAAIRSGSGTNYADSVKGRFTISRDNAKNTVFLQMNSLKPEDTAVYYCNAQPWYRTKYDYWGQGNQVTVSS | low polyreactivity |
| QVQLVESCGGLVQAGGSLRLSCAASGSTFWKYVMGWYRQAPGKDRELVAAISGRGGSTYYADSVKGRFTISRDNAKNTVYLQMNSLKPEDTAVYYCAKVHTRRKPYNSWGQGTQVTVSS | high polyreactivity |
| QVQLVESCGGLVQAGGSLRLSCAGSGITIYSYAMGWYRQAPGKERELVAAITLTGGTTYYADSVKGRFTISRDNAKNTVYLQMNSLKPEDTAVYYCNADYGGGVDGTYKYYSEYDYWGQGTQVTVSS | low polyreactivity |

| Sequence | polyreactivity (PSR sort gate) |
| --- | --- |
| QVQLVESCGGLVQAGGSLRLSCASSGRNFPVKAMGWYRQAPGKERELVAGITWSGDGSTYYADSVKGRFTISRDNAKNTVYLLMNSLKPEDTAVYYCAARLNLQGRYDYWGQGTQVTVSS | low polyreactivity |
| QVQLVESCGGLVQAGGSLRLSCPASGSIFHVNVMGCYRQEPGKERELVAAITYSGGATYYADSVKGRFTISRDNAKNTVYLQMNSLKPEDTAVYYCAAYPYWFFPHYDSWGQGTLVTVSS | low polyreactivity |
| QVQLVESCGGLVQAGGSLRLSCSASGFIIPYYAMGWYRQAPGKERELVAAISYSGDSTYYADSVKGRFTISRDNAKNTVYLLMISLKPEDTAVYYCAADVEQYYPLLTFDYCGQGTQVTVSS | low polyreactivity |
| QVQLVESCGGLVQAGGSLRVSCAASGITFDGYAMGSYRQAPGKERELVAAITRRGGNTYYADSVKGRFTISRDNAKNTVHLQLNSQKPEDTAFYYCNAQVVHYRVSSVITYTIYDYSGQGTQVTVSS | high polyreactivity |
| QVQLVESCGGLVQAGGSLSLSCAASGRILYYYAMGWYRQAPGKERELVAAITSGGSTYADSVKGRFTISRDNAKNTVYLQMNSLKPEDTAVYYCNADYTVYDTEYDYWGQGTQVTVSS | low polyreactivity |
| QVQLVESCGLLVQAGGSLRLSCAASGSIIVYNTMRCYRQAPGKERELVAAIYSSGGSTYYADSVKGRFTISRDNAKNTVYLQMNILKPEDTAVYYCAAVNGYQYPPYYYNGYDYWGQGTHVTVSS | low polyreactivity |
| QVQLVESDGGLDQAGGSLRLSCPASGIIFGYYVMGRYRQAPGKERELVASITSGGSTNYADSVKGRFTISRDNAKNTVYLQMNSLKPEDTAVYYCAAEERTDTIPGWRYPHDYWGQGTQVTVSS | low polyreactivity |
| QVQLVESEGGLVQAGGSLRLSCAASGRTYYAMGWYRQAPGKERELVAAISGTGASTYYADSVKGRFTISRDNAKNTVYLQMNSLKPEDTAVYYCAAEWFYYNTQQWFDYWGQGTQVPVSS | low polyreactivity |
| QVQLVESEGGLVQAGGSLRLTCAASGFIYKGYAMGSYRQAPGKETELVAAISSSGTSTYYADSVKGRFTISRDNAKNTVYLQMNSLKPEDTAVYYCARVSKRTWSGYYYWGQGTQVTVSS | high polyreactivity |
| QVQLVESGAALVQAGGSLRLSCAASGFIIAVYAMGWYRQAPGKERELVAAITRSGGSTYYADSVKGRFTISRDNAKNTFYLQMNSLKPEDSAVYYCAARNTQPASYGYGYWGLGTQVTVSS | high polyreactivity |
| QVQLVESGAALVQAGGSLSLSCAASGLTFYYYAMGWYRQAPGKERELVAAITSGGSTNYADSVKGRFTISRDNAKNTVFLQINSLKPEDTAVYYCAADPRYSFWGMYYWGLGTQVTVSS | low polyreactivity |
| QVQLVESGAGIVQAGGSLRLSCAASGIIFNLYAMGWYRQAPGKERELVASISIGGSTNYADSVKGRFTISRDNAKNTVYLQMNSLKPEDTAVYYCAAALYEATYDANGLDMDYWGQGTQVTVSS | high polyreactivity |
| QVQLVESGAGIVQAGGSLRLSCAASGRIFRYNAMGLYRQAPGKERELVAAITWSGVSTYYAHSVKGRFTISRDTAKITVFLQMNSLYPEDTGVYYCNGRRWPAWSSYDYWGQGTQVNVSS | high polyreactivity |
| QVQLVESGAGIVQAGGSLRLSCAASVSTFQSYAMGLYRPAPGKERELFAAISFSGGSTYYADSVKGRFTISRDNAKNTVYLQMNSLKPEDTAVYYCAKRGWVYFHGYDYWGQGTQVTVSS | low polyreactivity |
| QVQLVESGAGLFQAGGSLRISCAASGLIFDGYAMGWYRQATGKERELVAAITRSGGSTSYADSVKARFTISRDNAKNTVYLHMNSLKPEDTAVYYCAAKVHTFYYHYYSWGQGTQVTVSS | high polyreactivity |
| QVQLVESGAGLGQAGVSLRLSCAASGSTFPTYAMGWYRPAPGKERELVAAIDWSDGTTYYADSVKGRFTISRDNANNTVYLQMNSLKPDETAGYYCAASLSLSEYDYWGQATQVTVSS | low polyreactivity |
| QVQLVESGAGLLQAGGSLRLSCAASGITLRRNTMGWYRQAPGKERELVAAITRSGGSTYYADSVKGRVTISRDNAKNTVYLQINSLKPEVTAVYYCAEGPSYGGPSHVYWRQGTQVTVSS | high polyreactivity |
| QVQLVESGAGLVQAGASLRLSCAASGRIFSRYVMGWYRQAPGKEREFVASITWSGSSTYYADSVKGRFTLSRDNAKNTVYVQMNSLKPEDTAVYYCAALGLLSPSPWGTHIYEYDSWGQGTQVTVSS | low polyreactivity |
| QVQLVESGAGLVQAGGRIRLSCAASGRTLYGNTMGWYRPAPWKERELVAAINWSGGRTRYADSVKGRFTNSRDNAKNTVYVEMNSVKPEDTAVYYCAATKRANHERFGSWGQGTQVTVSS | high polyreactivity |
| QVQLVESGAGLVQAGGRIRLTCAASRSILRGYAMGWYRQAPGKERELVAAITWNGGSTYYADSVKGRFTISRDNANNTVYLHMISLKPEDTAVYYFNRAIGPYSYPDNYWGQGTQVTVSS | high polyreactivity |
| QVQLVESGAGLVQAGGRLRLSCAASGFTFRAYDMGWSRQAPAKERELVAAINISGGSTYYADSVKGRFTISRDNAKNTVYLQMNSLKPVDTAVYYCAAVPWVGTLYPRVGYWGQGTQGTVSS | low polyreactivity |
